Experimental data: US20200283482A1, “BICYCLIC PEPTIDE LIGAND PRR-A CONJUGATES AND USES THEREOF” (BicycleRD Limited, priority 2017, published 2020)
Starred links: 1 amine or outer side, 2 acyl side, 3 side chain; linkers in the order of their positions; H or OH if unused. Positions of bridges follow the written chain, without caps; N, C: chain ends. Non-standard residues stand in square brackets, D forms with d. Residues, ends and D or L forms follow the SMILES beside them. *: point of attachment. X14 = CCCOc1nc(NC(=O)CCCNC(=O)OCc2ccc(NC(=O)[C@H](CCCNC(N)=O)NC(=O)[C@@H](NC(=O)Cn3cc(CCC(=O)*)nn3)C(C)C)cc2)c2[nH]c(=O)n(Cc3ccc(OCCN(C)C)nc3)c2n1; X13 = CCOCc1nc2c(NC(=O)N(C)CCN(C)C(=O)OCc3ccc(NC(=O)[C@H](CCCNC(N)=O)NC(=O)[C@@H](NC(=O)Cn4cc(CCC(=O)*)nn4)C(C)C)cc3)nc3ccccc3c2n1CC(C)(C)O; X6 = CCN(Cc1nc2c(N)nc3ccccc3c2n1CC(C)(C)O)C(=O)OCc1ccc(NC(=O)[C@H](CCCNC(N)=O)NC(=O)[C@@H](NC(=O)Cn2cc(CCC(=O)*)nn2)C(C)C)cc1; X4 = CCN(Cc1nc2c(N)nc3ccccc3c2n1CC(C)(C)O)C(=O)OCc1ccc(NC(=O)[C@H](CCCNC(N)=O)NC(=O)C2(C(=O)*)CCC2)cc1; X16 = CCCOc1nc(NC(=O)CCCSSC(C)CCC(=O)*)c2[nH]c(=O)n(Cc3ccc(OCCN(C)C)nc3)c2n1; X15 = CCOCc1nc2c(NC(=O)CCCSSC(C)CCC(=O)*)nc3ccccc3c2n1CC(C)(C)O; 1Nal = N[C@@H](Cc1cccc2ccccc12)C(=O)O; TBMB = c1c(C[*:1])cc(C[*:3])cc1C[*:2]; X5 = O=C(CCc1cn(CCCN[*:1])nn1)[*:2]; Tle = CC(C)(C)[C@H](N)C(=O)O; βAla = NCCC(=O)O; Sar = CNCC(=O)O

Columns and labels:
Plasma stability, cyno = assay type: in vitro ADME; settings: cynomolgus monkey, plasma, pH 7.4
Method: (§1) The pooled frozen mouse, rat, dog, monkey or human plasma is thawed in a water bath at 37° C. prior to experiment. Plasma is centrifuged at 4000 rpm for 5 min and the clots are removed if any. […] For positive controls, 100 μM intermediate solution is prepared by diluting 20 μL of the stock solution with 180 μL 45% MeOH/H2O. […] For compounds I-7 to […]-17, […]-22, and […]-33, at each time point (0, 1, 2, 4, 6 and 24 hr), reactions were stopped by removing the plates from water bath and 200 μL 20 mM NH4OAC mix well first and then adding 800 μL of ice-cold stop solution (200 ng/mL Labetalol, 200 ng/mL Tolbutamide, 500 ng/mL N6-Ben and 40 mM DBAA in 100% Methanol). […] Sample plates were vortexed immediately on a plate shaker at 800 rpm for 10 min and then centrifuged at 4,000 rpm for 10 min. An aliquot of supernatant (200 μL) is transferred from each well before submitting to LC-MS/MS analysis. The percentage of test compound remaining at the individual time points relative to the 0 hour sample is calculated using following equation: Percent Remaining=100×(PAR at appointed incubation time/PAR at T0 time) where PAR is the peak area ratio of analyte versus internal standard (IS).

Plasma stability, mouse = assay type: in vitro ADME; settings: mouse, plasma, pH 7.4
Method: as §1

Plasma stability, rat = assay type: in vitro ADME; settings: rat, plasma, pH 7.4
Method: as §1

Plasma stability, human = assay type: in vitro ADME; settings: human, plasma, pH 7.4
Method: as §1

Blood stability, mouse = assay type: in vitro ADME, CD-1 mouse; settings: male, CD-1, mouse
Method: CD-1 mouse blood (n≥2, male, fasted overnight) is collected from animals housed at an internal facility. (EDTA-K2 is used as anticoagulant)
The test compounds and positive control stock solutions are prepared to 10 mM in DMSO or ultrapure water. Control compounds bisacodyl, enalapril and propantheline known to be metabolised by blood are also incubated alongside each batch of test compounds I-7, I-22, I-24, I-25, I-27, and I-29 to I-33. The dosing solutions of test compounds and controls are prepared by diluting the stock solution with 45% MeOH/H2O to achieve 100 uM. Test compound solutions (final incubation concentration=2 μM) are incubated with blood (final DMSO concentration≤1%) at six different time points (0, 1, 2, 4, 6 and 24 hours) in duplicate (n=2). The reaction is terminated by adding 100 uL ultra-pure water, mixing well, then adding 800 uL of 100% methanol containing 200 ng/mL tolbutamide and 200 ng/mL labetalol as internal standards. Samples are then vortexed and centrifuged at 3200×g for 20 minutes. Following centrifugation, the concentration of test compound in the supernatant is determined semi-quantitatively by LC-MS/MS. The percentage of test compound remaining at the individual time points relative to the 0 hour sample is then reported. The percent remaining of test compound after incubation in blood is calculated using following equation: Percent Remaining=100×(PAR at appointed incubation time/PAR at T0 time) where PAR is the peak area ratio of analyte versus internal standard (IS).

| SMILES | half-life at 2 μM (Plasma stability, cyno) | half-life at 2 μM (Plasma stability, mouse) | half-life at 2 μM (Plasma stability, rat) | half-life at 2 μM (Plasma stability, human) | half-life at 2 μM (Blood stability, mouse) |
| --- | --- | --- | --- | --- | --- |
| CCOCc1nc2c(NC(=O)N(C)CCN(C)C(=O)OCc3ccc(NC(=O)[C@H](CCCNC(N)=O)NC(=O)[C@@H](NC(=O)Cn4cc(CCC(=O)NCCC(=O)N(C)CC(=O)N(C)CC(=O)N(C)CC(=O)N(C)CC(=O)N(C)CC(=O)N(C)CC(=O)N(C)CC(=O)N(C)CC(=O)N(C)CC(=O)N(C)CC(=O)N[C@@H](C)C(=O)N[C@H]5CSCc6cc7cc(c6)CSC[C@H](NC(=O)[C@@H](C)NC(=O)[C@H](Cc6cccc8ccccc68)NC(=O)[C@H](CCC(=O)O)NC(=O)[C@H](CC(N)=O)NC(=O)[C@@H](C)NC5=O)C(=O)N[C@@H](CCC(=O)O)C(=O)N[C@@H](CC(=O)O)C(=O)N[C@@H](Cc5ccccc5)C(=O)N[C@@H](Cc5ccc(O)cc5)C(=O)N[C@@H](CC(=O)O)C(=O)N[C@@H](C(C)(C)C)C(=O)N[C@H](C(N)=O)CSC7)nn4)C(C)C)cc3)nc3ccccc3c2n1CC(C)(C)O [I-31] ({X13-βAla}-[Sar][Sar][Sar][Sar][Sar][Sar][Sar][Sar][Sar][Sar]AC[dA]NE[1Nal][dA]CEDFYD[Tle]C-NH2; linker 12-18-25 via TBMB) | > 24 h | > 24 h | > 24 h | > 24 h |  |
| CCCOc1nc(NC(=O)CCCSSC(C)CCC(=O)NCCC(=O)N(C)CC(=O)N(C)CC(=O)N(C)CC(=O)N(C)CC(=O)N(C)CC(=O)N(C)CC(=O)N(C)CC(=O)N(C)CC(=O)N(C)CC(=O)N(C)CC(=O)N[C@@H](C)C(=O)N[C@H]2CSCc3cc4cc(c3)CSC[C@H](NC(=O)[C@@H](C)NC(=O)[C@H](Cc3cccc5ccccc35)NC(=O)[C@H](CCC(=O)O)NC(=O)[C@H](CC(N)=O)NC(=O)[C@@H](C)NC2=O)C(=O)N[C@@H](CCC(=O)O)C(=O)N[C@@H](CC(=O)O)C(=O)N[C@@H](Cc2ccccc2)C(=O)N[C@@H](Cc2ccc(O)cc2)C(=O)N[C@@H](CC(=O)O)C(=O)N[C@@H](C(C)(C)C)C(=O)N[C@H](C(N)=O)CSC4)c2[nH]c(=O)n(Cc3ccc(OCCN(C)C)nc3)c2n1 (stereo partly drawn) [I-23] ({X16-βAla}-[Sar][Sar][Sar][Sar][Sar][Sar][Sar][Sar][Sar][Sar]AC[dA]NE[1Nal][dA]CEDFYD[Tle]C-NH2; linker 12-18-25 via TBMB) | < 2 h | < 2 h | < 2 h | < 2 h |  |
| CCN(Cc1nc2c(N)nc3ccccc3c2n1CC(C)(C)O)C(=O)OCc1ccc(NC(=O)[C@H](CCCNC(N)=O)NC(=O)[C@@H](NC(=O)Cn2cc(CCC(=O)NCCC(=O)N(C)CC(=O)N(C)CC(=O)N(C)CC(=O)N(C)CC(=O)N(C)CC(=O)N(C)CC(=O)N(C)CC(=O)N(C)CC(=O)N(C)CC(=O)N(C)CC(=O)N[C@@H](C)C(=O)N[C@H]3CSCc4cc5cc(c4)CSC[C@H](NC(=O)[C@@H](C)NC(=O)[C@H](Cc4cccc6ccccc46)NC(=O)[C@H](CCC(=O)O)NC(=O)[C@H](CC(N)=O)NC(=O)[C@@H](C)NC3=O)C(=O)N[C@@H](CCC(=O)O)C(=O)N[C@@H](CC(=O)O)C(=O)N[C@@H](Cc3ccccc3)C(=O)N[C@@H](Cc3ccc(O)cc3)C(=O)N[C@@H](CC(=O)O)C(=O)N[C@@H](C(C)(C)C)C(=O)N[C@H](C(N)=O)CSC5)nn2)C(C)C)cc1 [I-33] ({X6-βAla}-[Sar][Sar][Sar][Sar][Sar][Sar][Sar][Sar][Sar][Sar]AC[dA]NE[1Nal][dA]CEDFYD[Tle]C-NH2; linker 12-18-25 via TBMB) | > 24 h | 6 to 24 h | > 24 h | > 24 h | 6 to 24 h |
| CCN(Cc1nc2c(N)nc3ccccc3c2n1CC(C)(C)O)C(=O)OCc1ccc(NC(=O)[C@H](CCCNC(N)=O)NC(=O)C2(C(=O)NCCCn3cc(CCC(=O)NCCC(=O)N(C)CC(=O)N(C)CC(=O)N(C)CC(=O)N(C)CC(=O)N(C)CC(=O)N(C)CC(=O)N(C)CC(=O)N(C)CC(=O)N(C)CC(=O)N(C)CC(=O)N[C@@H](C)C(=O)N[C@H]4CSCc5cc6cc(c5)CSC[C@H](NC(=O)[C@@H](C)NC(=O)[C@H](Cc5cccc7ccccc57)NC(=O)[C@H](CCC(=O)O)NC(=O)[C@H](CC(N)=O)NC(=O)[C@@H](C)NC4=O)C(=O)N[C@@H](CCC(=O)O)C(=O)N[C@@H](CC(=O)O)C(=O)N[C@@H](Cc4ccccc4)C(=O)N[C@@H](Cc4ccc(O)cc4)C(=O)N[C@@H](CC(=O)O)C(=O)N[C@@H](C(C)(C)C)C(=O)N[C@H](C(N)=O)CSC6)nn3)CCC2)cc1 [I-30] (X4-[X5][βAla][Sar][Sar][Sar][Sar][Sar][Sar][Sar][Sar][Sar][Sar]AC[dA]NE[1Nal][dA]CEDFYD[Tle]C-NH2; linker 14-20-27 via TBMB) | > 24 h | > 24 h | > 24 h | > 24 h | 6 to 24 h |
| CCCOc1nc(NC(=O)CCCNC(=O)OCc2ccc(NC(=O)[C@H](CCCNC(N)=O)NC(=O)[C@@H](NC(=O)Cn3cc(CCC(=O)NCCC(=O)N(C)CC(=O)N(C)CC(=O)N(C)CC(=O)N(C)CC(=O)N(C)CC(=O)N(C)CC(=O)N(C)CC(=O)N(C)CC(=O)N(C)CC(=O)N(C)CC(=O)N[C@@H](C)C(=O)N[C@H]4CSCc5cc6cc(c5)CSC[C@H](NC(=O)[C@@H](C)NC(=O)[C@H](Cc5cccc7ccccc57)NC(=O)[C@H](CCC(=O)O)NC(=O)[C@H](CC(N)=O)NC(=O)[C@@H](C)NC4=O)C(=O)N[C@@H](CCC(=O)O)C(=O)N[C@@H](CC(=O)O)C(=O)N[C@@H](Cc4ccccc4)C(=O)N[C@@H](Cc4ccc(O)cc4)C(=O)N[C@@H](CC(=O)O)C(=O)N[C@@H](C(C)(C)C)C(=O)N[C@H](C(N)=O)CSC6)nn3)C(C)C)cc2)c2[nH]c(=O)n(Cc3ccc(OCCN(C)C)nc3)c2n1 [I-26] ({X14-βAla}-[Sar][Sar][Sar][Sar][Sar][Sar][Sar][Sar][Sar][Sar]AC[dA]NE[1Nal][dA]CEDFYD[Tle]C-NH2; linker 12-18-25 via TBMB) | < 2 h | < 2 h | < 2 h | < 2 h |  |
| CCOCc1nc2c(NC(=O)N(C)CCN(C)C(=O)OCc3ccc(NC(=O)[C@H](CCCNC(N)=O)NC(=O)[C@@H](NC(=O)Cn4cc(CCC(=O)NCCC(=O)N(C)CC(=O)N(C)CC(=O)N(C)CC(=O)N(C)CC(=O)N(C)CC(=O)N(C)CC(=O)N(C)CC(=O)N(C)CC(=O)N(C)CC(=O)N(C)CC(=O)N[C@@H](C)C(=O)N[C@H]5CSCc6cc7cc(c6)CSC[C@H](NC(=O)[C@@H](C)NC(=O)[C@H](Cc6cccc8ccccc68)NC(=O)[C@H](CCC(=O)O)NC(=O)[C@H](CC(N)=O)NC(=O)[C@@H](C)NC5=O)C(=O)N[C@@H](CCC(=O)O)C(=O)N[C@@H](CC(=O)O)C(=O)N[C@@H](Cc5ccccc5)C(=O)N[C@@H](Cc5ccc(O)cc5)C(=O)N[C@@H](CC(=O)O)C(=O)N[C@@H](C(C)(C)C)C(=O)N[C@H](C(N)=O)CSC7)nn4)C(C)C)cc3)nc3ccccc3c2n1CC(C)(C)O [1-31] ({X13-βAla}-[Sar][Sar][Sar][Sar][Sar][Sar][Sar][Sar][Sar][Sar]AC[dA]NE[1Nal][dA]CEDFYD[Tle]C-NH2; linker 12-18-25 via TBMB) |  |  |  |  | 6 to 24 h |
| CCOCc1nc2c(NC(=O)CCCSSC(C)CCC(=O)NCCC(=O)N(C)CC(=O)N(C)CC(=O)N(C)CC(=O)N(C)CC(=O)N(C)CC(=O)N(C)CC(=O)N(C)CC(=O)N(C)CC(=O)N(C)CC(=O)N(C)CC(=O)N[C@@H](C)C(=O)N[C@H]3CSCc4cc5cc(c4)CSC[C@H](NC(=O)[C@@H](C)NC(=O)[C@H](Cc4cccc6ccccc46)NC(=O)[C@H](CCC(=O)O)NC(=O)[C@H](CC(N)=O)NC(=O)[C@@H](C)NC3=O)C(=O)N[C@@H](CCC(=O)O)C(=O)N[C@@H](CC(=O)O)C(=O)N[C@@H](Cc3ccccc3)C(=O)N[C@@H](Cc3ccc(O)cc3)C(=O)N[C@@H](CC(=O)O)C(=O)N[C@@H](C(C)(C)C)C(=O)N[C@H](C(N)=O)CSC5)nc3ccccc3c2n1CC(C)(C)O (stereo partly drawn) [I-28] ({X15-βAla}-[Sar][Sar][Sar][Sar][Sar][Sar][Sar][Sar][Sar][Sar]AC[dA]NE[1Nal][dA]CEDFYD[Tle]C-NH2; linker 12-18-25 via TBMB) | 2 to 6 h | < 2 h | < 2 h | < 2 h |  |
